Laboratory results as given in US20200002383A1.

What was measured:
CH505 M11 gp120 (HIV-1) = assay: ELISA
CH505 M5 gp120 (HIV-1) = assay: ELISA
[1] = target: CH505 transmitted/founder (TF) gp120 Env (HIV-1); assay: ELISA
[2] = target: CH505 w020.14 gp120 (HIV-1); assay: ELISA
[3] = target: CH505 w030.28 gp120 (HIV-1); assay: ELISA
[4] = target: CH505 w053.16 gp120 (HIV-1); assay: ELISA
[5] = target: CH505 w078.15 gp120 (HIV-1); assay: ELISA
[6] = target: CH505 w030.21 gp120 (HIV-1); assay: ELISA
[7] = target: CH505 w053.31 gp120 (HIV-1); assay: ELISA
[8] = target: CH505 w078.33 gp120 (HIV-1); assay: ELISA
[9] = target: CH505 w100.B6 gp120 (HIV-1); assay: ELISA
[10] = target: CH505 TF loop D mutant M8 Env on virus (HIV-1)
[11] = target: CH505 transmitted/founder (TF) gp120 Env (HIV-1); assay: SPR
[12] = target: CH505 TF CHIM.6R.SOSIP.664V4.1 trimer (HIV-1); assay: kinetic binding assay of FIG. 69
[13] = target: CH505 transmitted/founder (TF) gp120 Env (HIV-1); assay: SPR, antibody captured, gp120 injected
[14] = target: BG505 SOSIP.664 gp140 trimer (HIV-1); assay: negative-stain EM
[15] = target: CH505 TF loop D mutant M20 Env on virus (HIV-1)
[16] = target: CH505 TF loop D mutant M7 Env on virus (HIV-1)
[17] = target: CH505 TF loop D mutant M9 Env on virus (HIV-1)

Row | Substance | log AUC (CH505 M11 gp120 (HIV-1)) [log AUC] | log AUC (CH505 M5 gp120 (HIV-1)) [log AUC] | log AUC [1] [log AUC] | log AUC [2] [log AUC] | log AUC [3] [log AUC] | log AUC [5] [log AUC] | further results
1 | CH103 lineage IA4 (from UniProt P27701) (antibody) | 10.5 | 3.8 | 10.1 | 8.6 | 6.5 | 1.3 | log AUC [4]: 0.2 log AUC
2 | CH103 lineage IA1 (antibody) | 12.2 | 7 | 10.4 | 10.3 | 10.1 | 10.9 | log AUC [6]: 11.8 log AUC; log AUC [4]: 8.8 log AUC; log AUC [7]: 13.4 log AUC; log AUC [8]: 8.2 log AUC; log AUC [9]: 12.2 log AUC
3 | CH235.9 (antibody) | – | – | – | – | – | – | IC50 [10]: 0.66 µg/mL
4 | CH103 lineage IA8 (antibody) | 6.2 | 0.6 | 5.5 | 3.4 | 1.6 | – | –
5 | CH103 lineage IA7 (antibody) | 10.1 | 2.3 | 9.2 | 7.2 | 3.5 | 0.7 | –
6 | CH103 lineage IA3 (antibody) | 11.8 | 6.8 | 11 | 9.5 | 7.7 | 3 | log AUC [4]: 1.1 log AUC
7 | CH235 UCA (antibody) | – | 0.2 | – | – | – | – | –
8 | CH235 lineage IA4 (antibody) | – | 1.4 | – | – | – | – | –
9 | CH235 lineage I1 (antibody) | 2.8 | 9.2 | – | 6.5 | 2.4 | – | –
10 | CH103 UCA (antibody) | 2.6 | – | 3.5 | 0.3 | – | – | Kd [11]: 200 nM; fold change of the off-rate against CH505 TF gp120 [12]: 10 fold; Kd [13]: 227 nM; kon [13]: 37000 M⁻¹ s⁻¹
11 | CH103 lineage IA6 (antibody) | 10 | 3.3 | 9.1 | 7.9 | 6.3 | 1 | –
12 | CH103 lineage IA2 (antibody) | 12.7 | 7.8 | 10.8 | 11 | 11.1 | 11.5 | log AUC [6]: 11.5 log AUC; log AUC [4]: 9.3 log AUC; log AUC [7]: 13.3 log AUC; log AUC [8]: 9 log AUC; log AUC [9]: 12.1 log AUC
13 | CH235 Fab | – | – | – | – | – | – | stoichiometry (Fabs per trimer) (Fab per trimer) [14]: 1
14 | CH235 lineage I3 (antibody) | – | 7 | – | 2.7 | – | – | –
15 | CH235 lineage I2 (antibody) | – | 6.9 | – | 1.2 | – | – | –
16 | CH235.9 N30T (antibody) | – | – | – | – | – | – | IC50 [15]: > 44 µg/mL; IC50 [16]: > 44 µg/mL; IC50 [10]: 24.3 µg/mL; IC50 [17]: > 44 µg/mL
